# Reference: the nanobody polyreactivity screen of Harvey et al. (2022)
# Test: yeast display, Sf9 membrane polyspecificity reagent, FACS + sequencing; frameworks hold sequencing errors
# Method in brief: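 Polyreactivity labels are assigned by the sorting gate from which each nanobody was recovered. The gates were low and high (top ~1%), set on anti-HA fluorescence for expression and streptavidin fluorescence for reagent binding. Before sorting, galactose-induced (36–48 hours) yeast display cells were stained for 1 hour at 4 °C with 10% biotinylated, detergent-solubilized Sf9 membrane reagent.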
row,Sequence,polyreactivity (PSR sort gate)
1,QVQLVESGGGLVQAGGSLRLSCAASGSNFFYYVMGWYRQAPGKERERVAAITRSTGSTYYADSVKGRFTISRDNAKNTVYLQMNSLIPEDTAVYSCAAEGPKWYYSGAFDYWGQGTQVTVSS,low polyreactivity
2,QVQLVESGGGLVQAGGSLRLSCAASGSNFGRYAMGWYRQAPGKESELVAAINDDSGRTYYADTVKGRFTISRDNAKNTVYLQMNSLKPEDTAVYYCAAYRISQGYSTYNYWGQGTQVTVSS,high polyreactivity
3,QVQLVESGGGLVQAGGSLRLSCAASGSNFGYYAMGWYRQAPGQERELVAAINSSGGSTYYADSVKGRFTISRDNAKNTVYLQMNSLKPEDTAVYYCAVRTRYKFNYWGQGTQVTVSS,low polyreactivity
4,QVQLVESGGGLVQAGGSLRLSCAASGSNFHQYAMGWYRQAPGKERELVAGINWSGGSTYYADSVKGRFTISRDNAKNTVYLQMNSLKPEDTAVYYCAKRYQLARAAYTGGYWGQGTQVTVSS,high polyreactivity
5,QVQLVESGGGLVQAGGSLRLSCAASGSNFKLYSMGWYRQAPGKERELVATIRWSGGSTYYADSVKGRFTISRDNAKNTVYLQMNSLKPEDTAVYYCAARRVRPNGYTSSPLDYWGQGTQVTVSS,high polyreactivity
6,QVQLVESGGGLVQAGGSLRLSCAASGSNFKNNAMGWYRQAPGKEREFVASISKRGGSTYYADSVKGRFTISRDNAKNTVYLQMNSLKPEDTEVYYCAKTYWSYGWSHGDYGEFDYWGQGTQVTVSS,high polyreactivity
7,QVQLVESGGGLVQAGGSLRLSCAASGSNFKWYAMGWYRQAPGKERELVSAISKSGGSTYYADSVKGRFTISRDNAKNTVYLQMNSLKPEDTAVYYCNAVYIGSRRRYEYDYWGQGTQVTVSS,high polyreactivity
8,QVQLVESGGGLVQAGGSLRLSCAASGSNFNRYAMGWYRQAPGKERELVAAITSTGGTNYADSVKGRFTISLDNAKNSVYLQMNSLKPEDTAVYYCAKRWLRWRSNYWGQVTQVTVSS,high polyreactivity
9,QVQLVESGGGLVQAGGSLRLSCAASGSNFNVYVMGWYRQAPGKERELVAAISWGDGSTSYADSVKGRFTISRDHAKNTVYLQMNSLKPEDTAVYYCNRRHSYPYDYWGQGTQVTVSS,high polyreactivity
10,QVQLVESGGGLVQAGGSLRLSCAASGSNFPHNAMGWYRQAPGKERELVAAITSSGGSTYYADSVKGRFTISRDNAKNTVYLQMNSLKPEDTAVYYCNKGKQRRRYNYWGQGTQVTVSS,high polyreactivity
11,QVQLVESGGGLVQAGGSLRLSCAASGSNFTFYTMGWYRQEPGKERELVAAINWSGSRTYYADSVKGRFTISRDNAKNTVYLQMNSLKPEDTAVYYCDAYYYTGPTTVESDYWGQGTQVTVSS,high polyreactivity
12,QVQLVESGGGLVQAGGSLRLSCAASGSNFTPNTMGWYRQAPAKERELVAGISSGDSTDYADSVKVRFTISRDNAKNTVYLQLNSLNPEDPAVYYCAAPWYGYYSRYDFYYWGQGTQVTVSS,low polyreactivity
13,QVQLVESGGGLVQAGGSLRLSCAASGSNFTYYALGWYRQAPGKERELVAAISKTGGRTYYADSVKGRFTISRDNAKNTVYLQMNSLKPEDTAVYYWAAEAPWQWYGWLRGYDFCGQGTQVTVSS,high polyreactivity
14,QVQLVESGGGLVQAGGSLRLSCAASGSNFVEYAMGWYRQAPGKERELVAGISSGGITSYADSVKGRFTISRDNAKNTVYLQMNSLKPEDTAVYYCATDPYKWFYSSYYLLQEVEYWGQGTQVTVSS,low polyreactivity
15,QVQLVESGGGLVQAGGSLRLSCAASGSNFVGYVMGRYRQAPGKERELVARIRWGGGRTYYADSVKGRFTISRDNAKNRVYLQMKSLKAEDTAVYYCAAVWRTRWAPGYYWGQGTQVTGSS,high polyreactivity
16,QVQLVESGGGLVQAGGSLRLSCAASGSNFVKYVMGWYRQAPGKERELDAAITWRGGRTYYADSVKGRFTISRDNEKNTVYLQMNSLKPEDTAVYYCAAYDQSLYGRRYDYWGQGTQVTVSS,high polyreactivity
17,QVQLVESGGGLVQAGGSLRLSCAASGSNFYPYAMGWYRQAPGKERELVAAITGTGGSTYYADSVKGRFTISRDNAKNTVYLQMNSLKPEDTAVYYCATRRRYYYSRYNYWGQGTQVTVSS,high polyreactivity
18,QVQLVESGGGLVQAGGSLRLSCAASGSNIYHNTMGWYRQAPGKERELITYYADSVKGRFTISRDNAKNTVYLQMNSLKPEDTAVYYCAASPVSRTGPGDYDYWGQGTQVTVSS,low polyreactivity
19,QVQLVESGGGLVQAGGSLRLSCAASGSNSFLYTMRWYRQAPGKERELVAAITGSTASTYYADSVKGRFTISRDNAKNTVYLQMNSLKPEDSAVYYWAAYWYAEGYWVSRDYWGQGTQVTVSS,low polyreactivity
20,QVQLVESGGGLVQAGGSLRLSCAASGSNSRVNAMGWYRQATWKERELVASITKSTGSTYYADSVKGRFTISRDNAKNTVYLQMNSLKPEDTAVYYCAKAASYPVRAFYYWGLGTQVTVSS,high polyreactivity
21,QVQLVESGGGLVQAGGSLRLSCAASGSNSVYAMGWYRQAPGKERELVAAITISGGITYYADSVKGRFTIARDNAKNTVYLQMNSLKPEDTAVFYCNADQGSALRWSYDYWGQGTQVTVSS,low polyreactivity

row,Sequence,polyreactivity (PSR sort gate)
1,QVQLVESGGGLVQAGGSLRLSCAASGSNYPPNAMGWYRQAPGKEREFVASITSSGGITNYADSVKGRFTISRDNAKNTVYLQMNSLKPVDTAVYYCAAKYYGGTRFRPYGYWGQGTQVTVSS,high polyreactivity
2,QVQLVESGGGLVQAGGSLRLSCAASGSNYYYYAIGWYRQAPGKERELVAAISWSGASTFYADSVKGRFTSSRDNAKNTVYLQMNSLKPEDTAVYYCAARYYGQPQYQPLYYWGQGTQVTVSS,high polyreactivity
3,QVQLVESGGGLVQAGGSLRLSCAASGSPFGYYAMGWYRQATGKERELVAAITRSGGRTYYADSVKGRFTISRDNAKNTVYLQMNSLKPEDTAVYYCAADRVRRPSPGGMDFWGQGTQVTVSS,high polyreactivity
4,QVQLVESGGGLVQAGGSLRLSCAASGSPFYAYAMGWYRQAPGKERQLVAAITYRDGRTNYADSVKGRFTISRDNAKNTVYLQMNSMKPEDTEVYYCARITGFTVRRYDYWGQGTQVTVSS,high polyreactivity
5,QVQLVESGGGLVQAGGSLRLSCAASGSSFGVNAMGWYRQAPGKERELVADISVRTDSTYYADSVKGRFTISRDNAKNTVYLQMNSLKPEDTAVYYCAAEVPYYYPGFYSYYDDSDYWGQGTQVTVSS,low polyreactivity
6,QVQLVESGGGLVQAGGSLRLSCAASGSSFGYNAMGWYRQAPGKERELVAAISRSGSTYYADSVKGRFTISRDKAKNTVYLHMNSLKPEDTAVYYCDARLWWTFCEYDYWGQGTQVTVSS,high polyreactivity
7,QVQLVESGGGLVQAGGSLRLSCAASGSSFNINAMGWYRQAPGKERELVAAISWSGDITYYADSVKGRFTISRDNAKNTVYLQLNSLKPEDTAVYYCNTDDPGNYWYAEYDYWGQGTQVTVSS,low polyreactivity
8,QVQLVESGGGLVQAGGSLRLSCAASGSSFPGYAMGWYRKAPGKERELVATSTYSDGSTYYADSVKGRFTISRDNAKNTVYLQMNSLKPEDTAVYYCAVTYWWYYGYDYWGQGTQVTVSS,low polyreactivity
9,QVQLVESGGGLVQAGGSLRLSCAASGSSFPYNTMGWYRQAPGKERELVAAISSGASTNYADSVKGRFTISRDNAKNTVYLQMNSLKPEDTAVYYCAAKYNANWDFDYWGQGTQVTVSS,low polyreactivity
10,QVQLVESGGGLVQAGGSLRLSCAASGSSFRGYAMGWSRQAPGKERELVAAISRSGGSTYYADSVKGRFTISRDNAKNTVYLQMKSLKPEDTAVYYCNARCSKRSSRGYDYWGQGTQVTVSS,high polyreactivity
11,QVQLVESGGGLVQAGGSLRLSCAASGSSFRYNAMGWYREAPGKEREMVAAITSSATSTYYADSVKGRFTISRDNAKNTVYLQMNSLKPEATAVYYCAAPPVYKWVSSRYDYWGQGTQVTVSS,low polyreactivity
12,QVQLVESGGGLVQAGGSLRLSCAASGSSFSGNFMGWYRQAPGKERELVAAISGRGGSTYYADSVKGRFTISRDNAKNTVYLQMNSLKPEDTAVYYCDAVYLKTYYWGLGTQVTVSS,high polyreactivity
13,QVQLVESGGGLVQAGGSLRLSCAASGSSFTPNVMGWYRQAPGKERELVAAISQSGGSTFYADSVKGRFTISRDNAKNTVYLQMNSLKPEDTAVYYCATEYYGPVYDLDYDYWGQGTQVTVSS,low polyreactivity
14,QVQLVESGGGLVQAGGSLRLSCAASGSSFTRYAMGWYRQAPGKERELVATINFSGDRTYYADSVKGRFTISRDNAKNTVYLQMNSLKPEDTAVYYCNNYSYQWPYRRFDYWGQGTLVTVSS,high polyreactivity
15,QVQLVESGGGLVQAGGSLRLSCAASGSSFWYNAMGWYRQAPGKERELVATISSRGDGTYYADSVKGRFTISRDNAKNTVYLQMNSLKPEDTAVYYCNKYRQQGWEFDYWGQGTQVTVSS,high polyreactivity
16,QVQLVESGGGLVQAGGSLRLSCAASGSSKLMLWDGIDRRLGKKGSWLPLFVLVVLRNYADSVKGRFTISRDNAKNTVFLHMNSLKPEDTAVYYCAATPIGSGGWGDYWGQGTQVTVSS,low polyreactivity
17,QVQLVESGGGLVQAGGSLRLSCAASGSSVYRYAMGWYRQAPGKERELVAAITWSGGSTYYADSVKGRFTISRDNAKNTVYLQMNSLKPEDSAVYYCAVEPFSNEFYYWGQGTQVTVSS,low polyreactivity
18,QVQLVESGGGLVQAGGSLRLSCAASGSTCFDYAMGWYRQAPGKERELVAAISRSGDTNYADSVKGRFTISRDNAKNTVYLQMNILKPEDTAVYYCAKDWAYRRHWVGFYYWGQGTQVTVSS,low polyreactivity
19,QVQLVESGGGLVQAGGSLRLSCAASGSTCVSNAMGWYRQAPGKERELVAAISSGDNTNYADSVKGRFTISRDNAKNTVYVQMNSLKPEDTAVYYCAARAYRWRSFSTMYYWGQGTQVTVST,high polyreactivity
20,QVQLVESGGGLVQAGGSLRLSCAASGSTFAAKAMGWYRHAPGKERELVAAITSSGGSTYYADSVKGRFTISRDNAKNTVYLQMNSLKPEDTAVYYCNKDNERYVRIYDSWGQGTQVTVAS,low polyreactivity
